Assay results: patent US20180155451A1 (published 2018)

T1: FcγRIIb extracellular domain with C-terminal His tag (human, UniProt P31994 43-217)
T1 construct: extracellular domain; Expressed in FreeStyle293 cells; analyte in the Biacore assay; also called FcgRIIb; 2b; not shown: His tag at the C terminus
T1 sequence (looked up): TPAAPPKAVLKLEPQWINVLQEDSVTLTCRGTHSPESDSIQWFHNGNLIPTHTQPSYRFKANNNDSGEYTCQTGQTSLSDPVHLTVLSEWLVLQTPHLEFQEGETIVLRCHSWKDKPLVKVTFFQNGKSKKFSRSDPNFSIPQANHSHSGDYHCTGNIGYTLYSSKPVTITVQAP

T2: FcγRIIb (human, UniProt P31994 43-217)
T2 construct: extracellular domain; also called FcgRIIb; 2b; not shown: His tag at the C terminus
T2 sequence (looked up): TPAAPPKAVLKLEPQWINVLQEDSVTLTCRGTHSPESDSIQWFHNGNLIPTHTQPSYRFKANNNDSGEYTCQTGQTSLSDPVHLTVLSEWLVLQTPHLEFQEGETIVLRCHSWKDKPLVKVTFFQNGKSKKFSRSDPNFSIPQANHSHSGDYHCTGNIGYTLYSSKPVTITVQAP


Key:
[1] = target: T3, FcγRIa extracellular domain with C-terminal His tag (human, UniProt P12314 16-292); assay: SPR (Biacore), antibody captured on antigen-peptide chip, FcγR as analyte; relative binding
T3 construct: extracellular domain; Expressed in FreeStyle293 cells; analyte in the Biacore assay; also called FcgRI; 1a; not shown: His tag at the C terminus
T3 sequence (P12314 16-292): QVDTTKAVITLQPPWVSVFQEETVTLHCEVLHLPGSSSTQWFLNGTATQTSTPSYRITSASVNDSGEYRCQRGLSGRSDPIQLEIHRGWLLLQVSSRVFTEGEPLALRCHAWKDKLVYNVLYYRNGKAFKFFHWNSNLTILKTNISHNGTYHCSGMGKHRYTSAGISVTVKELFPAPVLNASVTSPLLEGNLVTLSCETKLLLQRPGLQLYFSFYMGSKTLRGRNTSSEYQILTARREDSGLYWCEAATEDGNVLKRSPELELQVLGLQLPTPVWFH

[2] = target: T1, FcγRIIb extracellular domain with …; assay: as above
FcγRIa [3] = target: T4, FcγRIa (human, UniProt P12314 16-292); assay: SPR; He/Con_1a divided by He/Con_2b (FcγRIIb as reference)
T4 construct: extracellular domain; also called FcgRI; 1a; not shown: His tag at the C terminus
T4 sequence (P12314 16-292): as above

FcγRIa [4] = target: T4, FcγRIa; assay: SPR (Biacore), captured antibody, soluble FcγR; relative to GpH7-A5/GpH7-B3/GpL16-k0
FcγRIIb = target: T2, FcγRIIb; assay: as above

Row | Binder | He/Con_1a [1] | He/Con_2b [2] | Ia/IIb He_1a/2b (FcγRIa [3]) [ratio] | He/Con_1a (FcγRIa [4]) | He/Con_2b (FcγRIIb)
1 | GpH7-A5/GpH7-B3 variant E269_06M/GpL16-k0 (He Ab) (antibody, human IgG1, kappa, Heterodimerized anti-glypican-3 IgG1; the mutation stands in the GpH7-B3 chain only) heavy 1: not shown heavy 2: not shown light: DIVMTQSPLSLPVTPGEPASISCQASESLVHSNRNTYLHWYLQKPGQSPQLLIYKVSNRFSGVPDRFSGSGSGTDFTLKISRVEAEDVGVYYCSQNTHVPPTFGQGTKVEIERTVAAPSVFIFPPSDEQLKSGTASVVCLLNNFYPREAKVQWKVDNALQSGNSQESVTEQDSKDSTYSLSSTLTLSKADYEKHKVYACEVTHQGLSSPVTKSFNRGEC | 104 % of GpH7-A5/GpH7-B3/GpL16-k0 (=100) | 46.7 % of GpH7-A5/GpH7-B3/GpL16-k0 (=100) |  |  | 
2 | GpH7-A5/GpH7-B3 variant E269_07I/GpL16-k0 (He Ab) (antibody, human IgG1, kappa, Heterodimerized anti-glypican-3 IgG1; the mutation stands in the GpH7-B3 chain only) heavy 1: not shown heavy 2: not shown light: DIVMTQSPLSLPVTPGEPASISCQASESLVHSNRNTYLHWYLQKPGQSPQLLIYKVSNRFSGVPDRFSGSGSGTDFTLKISRVEAEDVGVYYCSQNTHVPPTFGQGTKVEIERTVAAPSVFIFPPSDEQLKSGTASVVCLLNNFYPREAKVQWKVDNALQSGNSQESVTEQDSKDSTYSLSSTLTLSKADYEKHKVYACEVTHQGLSSPVTKSFNRGEC | 103 % of GpH7-A5/GpH7-B3/GpL16-k0 (=100) | 43.9 % of GpH7-A5/GpH7-B3/GpL16-k0 (=100) |  |  | 
3 | GpH7-A5/GpH7-B3 variant E269_03V/GpL16-k0 (He Ab) (antibody, human IgG1, kappa, Heterodimerized anti-glypican-3 IgG1; the mutation stands in the GpH7-B3 chain only) heavy 1: not shown heavy 2: not shown light: DIVMTQSPLSLPVTPGEPASISCQASESLVHSNRNTYLHWYLQKPGQSPQLLIYKVSNRFSGVPDRFSGSGSGTDFTLKISRVEAEDVGVYYCSQNTHVPPTFGQGTKVEIERTVAAPSVFIFPPSDEQLKSGTASVVCLLNNFYPREAKVQWKVDNALQSGNSQESVTEQDSKDSTYSLSSTLTLSKADYEKHKVYACEVTHQGLSSPVTKSFNRGEC | 103 % of GpH7-A5/GpH7-B3/GpL16-k0 (=100) | 45.1 % of GpH7-A5/GpH7-B3/GpL16-k0 (=100) |  |  | 
4 | GpH7-A5/GpH7-B3 variant E269_04F/GpL16-k0 (He Ab) (antibody, human IgG1, kappa, Heterodimerized anti-glypican-3 IgG1; the mutation stands in the GpH7-B3 chain only) heavy 1: not shown heavy 2: not shown light: DIVMTQSPLSLPVTPGEPASISCQASESLVHSNRNTYLHWYLQKPGQSPQLLIYKVSNRFSGVPDRFSGSGSGTDFTLKISRVEAEDVGVYYCSQNTHVPPTFGQGTKVEIERTVAAPSVFIFPPSDEQLKSGTASVVCLLNNFYPREAKVQWKVDNALQSGNSQESVTEQDSKDSTYSLSSTLTLSKADYEKHKVYACEVTHQGLSSPVTKSFNRGEC | 103 % of GpH7-A5/GpH7-B3/GpL16-k0 (=100) | 45 % of GpH7-A5/GpH7-B3/GpL16-k0 (=100) |  |  | 

Other lines, results leading:

Row | He/Con_1a [1] | He/Con_2b [2] | Ia/IIb He_1a/2b (FcγRIa [3]) [ratio] | He/Con_1a (FcγRIa [4]) | He/Con_2b (FcγRIIb) | Binder
5 |  |  | 1.56 | 89.1 relative, HeCon Ab = 100 | 57.2 relative, HeCon Ab = 100 | GpH7-A5/GpH7-B3 variant V266_16H/GpL16-k0 (antibody, human IgG1, kappa, He Ab: mutation only in the GpH7-B3 H chain; EU numbering; also called He Ab) heavy 1: not shown heavy 2: not shown light: DIVMTQSPLSLPVTPGEPASISCQASESLVHSNRNTYLHWYLQKPGQSPQLLIYKVSNRFSGVPDRFSGSGSGTDFTLKISRVEAEDVGVYYCSQNTHVPPTFGQGTKVEIERTVAAPSVFIFPPSDEQLKSGTASVVCLLNNFYPREAKVQWKVDNALQSGNSQESVTEQDSKDSTYSLSSTLTLSKADYEKHKVYACEVTHQGLSSPVTKSFNRGEC
6 | 103 % of GpH7-A5/GpH7-B3/GpL16-k0 (=100) | 47.8 % of GpH7-A5/GpH7-B3/GpL16-k0 (=100) |  |  |  | GpH7-A5/GpH7-B3 variant E269_13S/GpL16-k0 (He Ab) (antibody, human IgG1, kappa, Heterodimerized anti-glypican-3 IgG1; the mutation stands in the GpH7-B3 chain only) heavy 1: not shown heavy 2: not shown light: DIVMTQSPLSLPVTPGEPASISCQASESLVHSNRNTYLHWYLQKPGQSPQLLIYKVSNRFSGVPDRFSGSGSGTDFTLKISRVEAEDVGVYYCSQNTHVPPTFGQGTKVEIERTVAAPSVFIFPPSDEQLKSGTASVVCLLNNFYPREAKVQWKVDNALQSGNSQESVTEQDSKDSTYSLSSTLTLSKADYEKHKVYACEVTHQGLSSPVTKSFNRGEC
7 |  |  | 1.67 | 90.6 relative, HeCon Ab = 100 | 54.4 relative, HeCon Ab = 100 | GpH7-A5/GpH7-B3 variant V266_13S/GpL16-k0 (antibody, human IgG1, kappa, He Ab: mutation only in the GpH7-B3 H chain; EU numbering; also called He Ab) heavy 1: not shown heavy 2: not shown light: DIVMTQSPLSLPVTPGEPASISCQASESLVHSNRNTYLHWYLQKPGQSPQLLIYKVSNRFSGVPDRFSGSGSGTDFTLKISRVEAEDVGVYYCSQNTHVPPTFGQGTKVEIERTVAAPSVFIFPPSDEQLKSGTASVVCLLNNFYPREAKVQWKVDNALQSGNSQESVTEQDSKDSTYSLSSTLTLSKADYEKHKVYACEVTHQGLSSPVTKSFNRGEC
8 |  |  | 1.89 | 93.3 relative, HeCon Ab = 100 | 49.4 relative, HeCon Ab = 100 | GpH7-A5/GpH7-B3 variant V266_15Y/GpL16-k0 (antibody, human IgG1, kappa, He Ab: mutation only in the GpH7-B3 H chain; EU numbering; also called He Ab) heavy 1: not shown heavy 2: not shown light: DIVMTQSPLSLPVTPGEPASISCQASESLVHSNRNTYLHWYLQKPGQSPQLLIYKVSNRFSGVPDRFSGSGSGTDFTLKISRVEAEDVGVYYCSQNTHVPPTFGQGTKVEIERTVAAPSVFIFPPSDEQLKSGTASVVCLLNNFYPREAKVQWKVDNALQSGNSQESVTEQDSKDSTYSLSSTLTLSKADYEKHKVYACEVTHQGLSSPVTKSFNRGEC
9 | 104 % of GpH7-A5/GpH7-B3/GpL16-k0 (=100) | 42.9 % of GpH7-A5/GpH7-B3/GpL16-k0 (=100) |  |  |  | GpH7-A5/GpH7-B3 variant E269_08L/GpL16-k0 (He Ab) (antibody, human IgG1, kappa, Heterodimerized anti-glypican-3 IgG1; the mutation stands in the GpH7-B3 chain only) heavy 1: not shown heavy 2: not shown light: DIVMTQSPLSLPVTPGEPASISCQASESLVHSNRNTYLHWYLQKPGQSPQLLIYKVSNRFSGVPDRFSGSGSGTDFTLKISRVEAEDVGVYYCSQNTHVPPTFGQGTKVEIERTVAAPSVFIFPPSDEQLKSGTASVVCLLNNFYPREAKVQWKVDNALQSGNSQESVTEQDSKDSTYSLSSTLTLSKADYEKHKVYACEVTHQGLSSPVTKSFNRGEC
